Experimental findings from paper PMC9744887, “Structural mechanism of signal transduction in a phytochrome histidine kinase” (Nature Communications, 2022) are described below.

By stoichiometry N is commonly meant a count of units in the complex or per binding partner.

The series deals with the molecule itself. In words: cryo-EM structure; single-particle cryo-EM of DrBphP-DrRR in the Pr state: 780 nm far-red light on the grid; 1-1.5 mg/ml protein with 10 mM CaCl2, 10 mM MgCl2, 4 mM AMP-PNP; Vitrobot at 4 °C; no symmetry imposed.

B1: DrBphP-DrRR fusion protein (Deinococcus radiodurans phytochrome fused to its response regulator by a 12 amino acid tether) (other)
chain: MSRDPLPFFPPLYLGGPEITTENCEREPIHIPGSIQPHGALLTADGHSGEVLQMSLNAATFLGQEPTVLRGQTLAALLPEQWPALQAALPPGCPDALQYRATLDWPAAGHLSLTVHRVGELLILEFEPTEAWDSTGPHALRNAMFALESAPNLRALAEVATQTVRELTGFDRVMLYKFAPDATGEVIAEARREGLHAFLGHRFPASDIPAQARALYTRHLLRLTADTRAAAVPLDPVLNPQTNAPTPLGGAVLRATSPMHMQYLRNMGVGSSLSVSVVVGGQLWGLIACHHQTPYVLPPDLRTTLEYLGRLLSLQVQVKEAADVAAFRQSLREHHARVALAAAHSLSPHDTLSDPALDLLGLMRAGGLILRFEGRWQTLGEVPPAPAVDALLAWLETQPGALVQTDALGQLWPAGADLAPSAAGLLAISVGEGWSECLVWLRPELRLEVAWGGATPDQAKDDLGPRHSFDTYLEEKRGYAEPWHPGEIEEAQDLRDTLTGALGERLSVIRDLNRALTQSNAEWRQYGFVISHHMQEPVRLISQFAELLTRQPRAQDGSPDSPQTERITGFLLRETSRLRSLTQDLHTYTALLSAPPPVRRPTPLGRVVDDVLQDLEPRIADTGASIEVAPELPVIAADAGLLRDLLLHLIGNALTFGGPEPRIAVRTERQGAGWSIAVSDQGAGIAPEYQERIFLLFQRLGSLDEALGNGLGLPLCRKIAELHGGTLTVESAPGEGSTFRCWLPDAGPLPGAADAASSAGGSAGSAGMPERASVPLRLLLVEDNAADIFLMEMALEYSSVHTELLVARDGLEALELLEQAKTGGPFPDLILLDLNMPRVDGFELLQALRADPHLAHLPAIVLTTSNDPSDVKRAYALQANSYLTKPSTLEDFLQLIERLTAYWFGTAAIPQTYQPQ
modifications: biliverdin (BV) chromophore; lysate incubated with a molar excess of biliverdin hydrochloride
notes: 938-aa construct in pET21b(+), counting the N-terminal T7-tag and the C-terminal His6-tag; Models were built up to Leu591 (Pr) and for residues 22-521 (Pfr); also called full-length DrBphP-DrRR; source: E. coli BL21 (DE3), purified (NiNTA, size-exclusion chromatography)
For B1, the “stoichiometry N” value was found to be 2.

B2: Phytochrome from Deinococcus radiodurans (DrBphP), as the phytochrome part of the DrBphP-DrRR fusion (enzyme)
chain: MSRDPLPFFPPLYLGGPEITTENCEREPIHIPGSIQPHGALLTADGHSGEVLQMSLNAATFLGQEPTVLRGQTLAALLPEQWPALQAALPPGCPDALQYRATLDWPAAGHLSLTVHRVGELLILEFEPTEAWDSTGPHALRNAMFALESAPNLRALAEVATQTVRELTGFDRVMLYKFAPDATGEVIAEARREGLHAFLGHRFPASDIPAQARALYTRHLLRLTADTRAAAVPLDPVLNPQTNAPTPLGGAVLRATSPMHMQYLRNMGVGSSLSVSVVVGGQLWGLIACHHQTPYVLPPDLRTTLEYLGRLLSLQVQVKEAADVAAFRQSLREHHARVALAAAHSLSPHDTLSDPALDLLGLMRAGGLILRFEGRWQTLGEVPPAPAVDALLAWLETQPGALVQTDALGQLWPAGADLAPSAAGLLAISVGEGWSECLVWLRPELRLEVAWGGATPDQAKDDLGPRHSFDTYLEEKRGYAEPWHPGEIEEAQDLRDTLTGALGERLSVIRDLNRALTQSNAEWRQYGFVISHHMQEPVRLISQFAELLTRQPRAQDGSPDSPQTERITGFLLRETSRLRSLTQDLHTYTALLSAPPPVRRPTPLGRVVDDVLQDLEPRIADTGASIEVAPELPVIAADAGLLRDLLLHLIGNALTFGGPEPRIAVRTERQGAGWSIAVSDQGAGIAPEYQERIFLLFQRLGSLDEALGNGLGLPLCRKIAELHGGTLTVESAPGEGSTFRCWLPDAGPLPGAADA
modifications: biliverdin (BV) chromophore; lysate incubated with a molar excess of biliverdin hydrochloride
notes: see m1; also called full-length DrBphP; source: E. coli BL21 (DE3), purified (NiNTA, size-exclusion chromatography), as part of the fusion m1
On to B2, for which the binding result is “binds”.
